Reference: paper PMC4624055 (The Journal of allergy and clinical immunology, 2015)

B1: Asc s 13 (enzyme, Ascaris suum, UniProt P46436 1-206, looked up)
chain: MPQYKLTYFDIRGLGEGARLIFHQAGVKFEDNRLKREDWPALKPKTPFGQLPLLEVDGEVLAQSAAIYRYLGRQFGLAGKTPMEEAQVDSIFDQFKDFMAELRPCFRVLAGFEEGDKEKVLKEVAVPARDKHLPLLEKFLAKSGSEYMVGKSVTWADLVITDSLASWESLIPDFLSGHLQLKKYIEHVRELPNIKKWIAERPKTPY
B2: Bla g 5 (enzyme, Blattella germanica, UniProt O18598 1-204, looked up)
chain: MAPSYKLTYCPVKALGEPIRFLLSYGEKDFEDYRFQEGDWPNLKPSMPFGKTPVLEIDGKQTHQSVAISRYLGKQFGLSGKDDWENLEIDMIVDTISDFRAAIANYHYDADENSKQKKWDPLKKETIPYYTKKFDEVVKANGGYLAAGKLTWADFYFVAILDYLNHMAKEDLVANQPNLKALREKVLGLPAIKAWVAKRPPTDL

Target: the molecule itself
Assay: crystal structure

Protein	stoichiometry N
B1	2
B2	2
